Test results as given in article PMC10287957, “RecF protein targeting to postreplication (daughter strand) gaps I: DNA binding by RecF and RecFR”.

Assays:
[1] = target: T1, RecF (Escherichia coli, UniProt P0A7H0 1-357); assay: fluorescence anisotropy; settings: 30 mM Tris-Cl pH 7.5, 100 mM NaCl, 10 mM MgCl2, 0.1 mM EDTA, 1 mM DTT, 30% glycerol, 0.1 mg/ml BSA, 10 nM DNA, 25 C, 3 mM ATP and 5 uM RecR where indicated
T1 sequence: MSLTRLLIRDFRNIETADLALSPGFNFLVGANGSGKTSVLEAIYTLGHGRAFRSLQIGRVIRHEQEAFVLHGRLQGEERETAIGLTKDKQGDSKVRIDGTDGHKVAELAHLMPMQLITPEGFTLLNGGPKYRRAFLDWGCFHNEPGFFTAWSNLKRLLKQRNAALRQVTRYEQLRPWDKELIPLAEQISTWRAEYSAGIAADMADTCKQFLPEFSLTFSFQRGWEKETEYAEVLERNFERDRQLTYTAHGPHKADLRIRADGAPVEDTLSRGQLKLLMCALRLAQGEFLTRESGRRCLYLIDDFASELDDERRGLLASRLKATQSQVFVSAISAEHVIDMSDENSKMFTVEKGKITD

[2] = target: RecF;RecR (Escherichia coli;Escherichia coli) (UniProt P0A7H0); assay: fluorescence anisotropy; settings: 3 mM ATP, 5 uM RecR, 30 mM Tris-Cl pH 7.5, 100 mM NaCl, 10 mM MgCl2, 0.1 mM EDTA, 1 mM DTT, 30% glycerol, 0.1 mg/ml BSA, 10 nM DNA, 25 C, 3 mM ATP and 5 uM RecR where indicated
[3] = target: T1, RecF; assay: fluorescence anisotropy; 3 mM ATP; 30 mM Tris-Cl pH 7.5, 100 mM NaCl, 10 mM MgCl2, 0.1 mM EDTA, 1 mM DTT, 30% glycerol, 0.1 mg/ml BSA, 10 nM DNA, 25 C; 3 mM ATP and 5 uM RecR where indicated; settings: protein: recombinant; chain copies: 2; label: 5' FAM

## iFAM ss_5P 50mer
[1]; 5' phosphate
  Kd: 0.116 µM
[1]; no ATP, Kd nearly in the uM range, h 1, 5' phosphate
  Kd: 1 µM

## iFAM ss 50mer (dephosphorylated)
[1]
  Kd: 0.112 µM

## 31mer dsDNA 5FAM
[1]
  Kd: 0.108 µM

## 20mer ssDNA 5FAM
[1]; 3 mM ATP, h 1.1
  Kd: 0.64 µM

## 20mer dsDNA 5FAM
[2]
  Kd: 109 nM
[1]; 3 mM ATP, h 2.4
  Kd: 0.067 µM

## 40mer ssDNA 5FAM (random sequence)
[1]
  Kd: 0.134 µM

## 40mer dsDNA 5FAM
[1]
  Kd: 0.175 µM

## iFAM css (circular 50mer)
[2]; circularized by ligation
  Kd: 68.4 nM
[1]; circularized by ligation
  Kd: 0.0978 µM

B1: 31 polydT ssDNA 5FAM (ssDNA)
DNA: TTTTTTTTTTTTTTTTTTTTTTTTTTTTTTT
[3]
  Kd: 93 nM
